Substitutions are numbered along the chain they refer to.
Experiments:
[1] = target: T1, biotinylated refolded G2-pHLA (A*01:01/b2m/…) (human, biotinylated at the C-terminal AviTag); test: BLI (ForteBio Octet HTX), biotinylated G2-pHLA captured on streptavidin SAX biosensor, antibody in solution, 1:1 kinetic model
T1 construct: Soluble complex caught on streptavidin sensors or MSD plates; also called G2-peptide A*01:01/b2m complex; WT
Description: (§1) The biosensors were then dipped in assay buffer for a baseline. […] The biosensors were finally dipped into wells containing assay buffer to measure the dissociation rate for another 50 seconds. Referencing was completed by having a biosensor with no immobilized ligand dipped into analyte. Kinetic data was processed with Octet™ software using a 1:1 kinetic model with errors within 10%, X² below 3, and R² above 0.9.

[2] = target: T1, biotinylated refolded G2-pHLA …; test: BLI (Octet), biotinylated pHLA on streptavidin sensor, bivalent antibody as analyte (apparent affinity)
Description: as §1

[3] = target: T1, biotinylated refolded G2-pHLA …; test: BLI (ForteBio Octet HTX), biotinylated G2-pHLA captured on streptavidin SAX biosensor, antibody in solution, 1:1 Fit
Description: as §1

[4] = target: T1, biotinylated refolded G2-pHLA …; test: BLI (ForteBio Octet HTX), biotinylated G2-pHLA captured on streptavidin SAX biosensor, antibody in solution, 1:2 Fit
[5] = target: T2, HLA-PEPTIDE target A*01:01_… (G2) on cells (human); test: flow cytometry, A375 cells engineered to express the G2 peptide
T2 construct: whole, on cells; also recovered from cell lysates in the IP-MS experiment; also called G2 pHLA; G2 target
Protocol: Tumor cells engineered to express target peptide were harvested, washed in PBS, and stained with eBioscience Fixable Viability Dye eFluor 450 for 15 minutes at room temperature. Following another wash in PBS+1-2% FBS, cells were resuspended with the indicated molecules at varying concentrations and incubated for 1 hour at 4° C. After another wash, PE-conjugated goat anti-human IgG secondary antibody (Jackson ImmunoResearch) was added at 1:100 to 1:200 for 30 minutes at 4° C. After washing in PBS+1-2% FBS, cells were resuspended in PBS+1-2% FBS and analyzed by flow cytometry. Flow cytometric analysis was performed on the Attune NxT Flow Cytometer (ThermoFisher) using the Attune NxT Software. Data was analyzed using FlowJo.

[6] = target: biotinylated G5-pHLA (HLA-B*35:01 with …) (human); test: BLI (ForteBio Octet HTX), biotinylated G5-pHLA captured on streptavidin SAX biosensor, antibody in solution, 1:1 Fit
Description: as §1

[7] = target: biotinylated G5-pHLA (HLA-B*35:01 with …) (human); test: BLI (ForteBio Octet HTX), biotinylated G5-pHLA captured on streptavidin SAX biosensor, antibody in solution, 1:2 Fit
CD3 on CD3+ Jurkat cells = target: T3, CD3 on CD3+ Jurkat cells (human, UniProt P07766 23-207); test: flow cytometry, anti IgG PE, CD3+ Jurkat cells
T3 construct: whole, on cells
Protocol: Increasing concentrations of the antibodies were incubated with CD3(+) and CD9(−) Jurkat cells. Binding was determined by flow cytometery using an anti IgG-PE antibody for detection.

[8] = target: T2, HLA-PEPTIDE target A*01:01_… (G2) on …; test: flow cytometry, anti IgG PE, A375 9mer cells (1e6 copies per cell)
Protocol: A375 transduced with luciferase alone served as the negative control. […] Binding was determined by flow cytometery using an anti IgG-PE antibody for detection.

T3 sequence (P07766 23-207): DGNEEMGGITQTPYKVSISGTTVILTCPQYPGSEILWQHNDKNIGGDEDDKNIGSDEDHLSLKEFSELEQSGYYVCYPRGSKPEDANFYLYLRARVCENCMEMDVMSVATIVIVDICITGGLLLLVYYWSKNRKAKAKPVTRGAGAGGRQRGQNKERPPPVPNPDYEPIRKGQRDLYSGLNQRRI

B1: Format 4-G2(1H11) hOKT3a (non-shortened linkers, without DSB) (bispecific antibody, human IgG1, kappa, N297Q)
chain: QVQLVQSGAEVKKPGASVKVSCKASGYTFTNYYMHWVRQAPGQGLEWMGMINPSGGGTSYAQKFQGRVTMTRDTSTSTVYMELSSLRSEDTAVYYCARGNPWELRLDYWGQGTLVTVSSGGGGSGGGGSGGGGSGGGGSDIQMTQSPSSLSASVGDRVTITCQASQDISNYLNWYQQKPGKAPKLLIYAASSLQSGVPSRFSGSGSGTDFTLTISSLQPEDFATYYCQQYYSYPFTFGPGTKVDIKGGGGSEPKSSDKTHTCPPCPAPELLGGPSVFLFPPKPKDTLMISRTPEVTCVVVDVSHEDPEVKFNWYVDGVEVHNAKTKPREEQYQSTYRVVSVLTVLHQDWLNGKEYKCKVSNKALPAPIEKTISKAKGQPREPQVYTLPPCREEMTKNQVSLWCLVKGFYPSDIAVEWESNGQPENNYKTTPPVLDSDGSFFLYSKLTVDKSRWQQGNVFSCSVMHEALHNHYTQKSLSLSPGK
heavy: QVQLVQSGAEVKKPGASVKVSCKASGYTFTNYYMHWVRQAPGQGLEWMGMINPSGGGTSYAQKFQGRVTMTRDTSTSTVYMELSSLRSEDTAVYYCARGNPWELRLDYWGQGTLVTVSSGGGGSGGGGSGGGGSGGGGSDIQMTQSPSSLSASVGDRVTITCQASQDISNYLNWYQQKPGKAPKLLIYAASSLQSGVPSRFSGSGSGTDFTLTISSLQPEDFATYYCQQYYSYPFTFGPGTKVDIKGGGGSGGGGSQVQLVQSGAEVKKPGASVKVSCKASGYTFTRYTMHWVRQAPGQGLEWMGYINPSRGYTNYNQKFKDRVTLTTDKSSSTAYMELSSLRSEDTAVYYCARYYDDHYSLDYWGQGTLVTVSSASTKGPSVFPLAPSSKSTSGGTAALGCLVKDYFPEPVTVSWNSGALTSGVHTFPAVLQSSGLYSLSSVVTVPSSSLGTQTYICNVNHKPSNTKVDKRVEPKSCDKTHTCPPCPAPELLGGPSVFLFPPKPKDTLMISRTPEVTCVVVDVSHEDPEVKFNWYVDGVEVHNAKTKPREEQYQSTYRVVSVLTVLHQDWLNGKEYKCKVSNKALPAPIEKTISKAKGQPREPQVCTLPPSREEMTKNQVSLSCAVKGFYPSDIAVEWESNGQPENNYKTTPPVLDSDGSFFLVSKLTVDKSRWQQGNVFSCSVMHEALHNRFTQKSLSLSPGK
light: DIQMTQSPSSLSASVGDRVTITCSASSSVSYMNWYQQKPGKAPKRLIYDTSKLASGVPSRFSGSGSGTDFTLTISSLQPEDFATYYCQQWSSNPFTFGQGTKLEIKRTVAAPSVFIFPPSDEQLKSGTASVVCLLNNFYPREAKVQWKVDNALQSGNSQESVTEQDSKDSTYSLSSTLTLSKADYEKHKVYACEVTHQGLSSPVTKSFNRGEC
notes: In solution a mixture of 2xscFv and diabody conformations; also called G2 Format 4 bispecific; G2(1H11)hOKT3a 2xscFv
[1]
  koff: 0.00397 s⁻¹
[2]
  Kd: 18 nM
[3]
  Kd: 30.3 nM
  koff: 0.0277 s⁻¹
  kon: 913000 M⁻¹ s⁻¹
[4]
  Kd: 1640 nM
  koff: 0.324 s⁻¹
  kon: 198000 M⁻¹ s⁻¹
[5]
  EC50: 9.8 nM

B2: 41-G5(1C12) hOKT3a (Format 4-G5(1C12) hOKT3a with shortened 10 amino acid L1 and L2 linkers) (bispecific antibody, human IgG1, kappa, N297Q)
chain: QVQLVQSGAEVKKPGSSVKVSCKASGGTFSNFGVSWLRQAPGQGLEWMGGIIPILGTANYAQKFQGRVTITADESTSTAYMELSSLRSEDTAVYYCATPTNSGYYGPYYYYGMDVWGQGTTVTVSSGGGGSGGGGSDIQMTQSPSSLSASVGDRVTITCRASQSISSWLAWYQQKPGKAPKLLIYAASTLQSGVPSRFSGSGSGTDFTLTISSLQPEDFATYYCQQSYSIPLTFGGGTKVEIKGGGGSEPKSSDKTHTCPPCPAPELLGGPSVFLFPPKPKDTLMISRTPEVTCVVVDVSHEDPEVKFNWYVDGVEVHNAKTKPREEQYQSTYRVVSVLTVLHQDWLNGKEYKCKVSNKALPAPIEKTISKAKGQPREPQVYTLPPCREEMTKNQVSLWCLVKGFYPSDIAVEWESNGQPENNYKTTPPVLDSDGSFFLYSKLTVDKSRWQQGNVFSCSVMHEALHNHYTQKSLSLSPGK
heavy: QVQLVQSGAEVKKPGSSVKVSCKASGGTFSNFGVSWLRQAPGQGLEWMGGIIPILGTANYAQKFQGRVTITADESTSTAYMELSSLRSEDTAVYYCATPTNSGYYGPYYYYGMDVWGQGTTVTVSSGGGGSGGGGSDIQMTQSPSSLSASVGDRVTITCRASQSISSWLAWYQQKPGKAPKLLIYAASTLQSGVPSRFSGSGSGTDFTLTISSLQPEDFATYYCQQSYSIPLTFGGGTKVEIKGGGGSGGGGSQVQLVQSGAEVKKPGASVKVSCKASGYTFTRYTMHWVRQAPGQGLEWMGYINPSRGYTNYNQKFKDRVTLTTDKSSSTAYMELSSLRSEDTAVYYCARYYDDHYSLDYWGQGTLVTVSSASTKGPSVFPLAPSSKSTSGGTAALGCLVKDYFPEPVTVSWNSGALTSGVHTFPAVLQSSGLYSLSSVVTVPSSSLGTQTYICNVNHKPSNTKVDKRVEPKSCDKTHTCPPCPAPELLGGPSVFLFPPKPKDTLMISRTPEVTCVVVDVSHEDPEVKFNWYVDGVEVHNAKTKPREEQYQSTYRVVSVLTVLHQDWLNGKEYKCKVSNKALPAPIEKTISKAKGQPREPQVCTLPPSREEMTKNQVSLSCAVKGFYPSDIAVEWESNGQPENNYKTTPPVLDSDGSFFLVSKLTVDKSRWQQGNVFSCSVMHEALHNRFTQKSLSLSPGK
light: B1 light
notes: also called 4-G5(1C12)_10AAL hOKT3a; G5(1C12)_10AAL
[6]
  Kd: 2.2 nM
  koff: 0.00279 s⁻¹
  kon: 1.27e+06 M⁻¹ s⁻¹
[7]
  Kd: 16.1 nM
  koff: 0.00652 s⁻¹
  kon: 405000 M⁻¹ s⁻¹

B3: Format 4-G2(1H11) hOKT3a with shortened 10 amino acid L1 and L2 linkers (bispecific antibody, human IgG1, kappa, N297Q)
chain: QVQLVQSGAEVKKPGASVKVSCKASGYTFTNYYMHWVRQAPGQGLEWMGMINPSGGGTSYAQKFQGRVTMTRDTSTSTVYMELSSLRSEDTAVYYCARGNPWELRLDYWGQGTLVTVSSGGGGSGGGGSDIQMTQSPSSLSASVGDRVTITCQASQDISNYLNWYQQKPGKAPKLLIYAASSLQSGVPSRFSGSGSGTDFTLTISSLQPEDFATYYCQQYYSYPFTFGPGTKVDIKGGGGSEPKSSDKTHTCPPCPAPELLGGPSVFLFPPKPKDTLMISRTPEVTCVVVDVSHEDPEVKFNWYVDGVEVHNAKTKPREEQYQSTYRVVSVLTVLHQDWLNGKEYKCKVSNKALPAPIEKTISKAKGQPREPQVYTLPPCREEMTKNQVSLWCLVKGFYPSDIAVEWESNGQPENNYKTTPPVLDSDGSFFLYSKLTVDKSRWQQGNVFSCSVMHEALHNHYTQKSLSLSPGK
heavy: QVQLVQSGAEVKKPGASVKVSCKASGYTFTNYYMHWVRQAPGQGLEWMGMINPSGGGTSYAQKFQGRVTMTRDTSTSTVYMELSSLRSEDTAVYYCARGNPWELRLDYWGQGTLVTVSSGGGGSGGGGSDIQMTQSPSSLSASVGDRVTITCQASQDISNYLNWYQQKPGKAPKLLIYAASSLQSGVPSRFSGSGSGTDFTLTISSLQPEDFATYYCQQYYSYPFTFGPGTKVDIKGGGGSGGGGSQVQLVQSGAEVKKPGASVKVSCKASGYTFTRYTMHWVRQAPGQGLEWMGYINPSRGYTNYNQKFKDRVTLTTDKSSSTAYMELSSLRSEDTAVYYCARYYDDHYSLDYWGQGTLVTVSSASTKGPSVFPLAPSSKSTSGGTAALGCLVKDYFPEPVTVSWNSGALTSGVHTFPAVLQSSGLYSLSSVVTVPSSSLGTQTYICNVNHKPSNTKVDKRVEPKSCDKTHTCPPCPAPELLGGPSVFLFPPKPKDTLMISRTPEVTCVVVDVSHEDPEVKFNWYVDGVEVHNAKTKPREEQYQSTYRVVSVLTVLHQDWLNGKEYKCKVSNKALPAPIEKTISKAKGQPREPQVCTLPPSREEMTKNQVSLSCAVKGFYPSDIAVEWESNGQPENNYKTTPPVLDSDGSFFLVSKLTVDKSRWQQGNVFSCSVMHEALHNRFTQKSLSLSPGK
light: B1 light
notes: also called 4-G2(1H11)-10AAL hOKT3a; G2(1H11)_10AAL
[3]
  Kd: 6.35 nM
  koff: 0.00608 s⁻¹
  kon: 958000 M⁻¹ s⁻¹
[4]
  Kd: 301 nM
  koff: 0.0746 s⁻¹
  kon: 248000 M⁻¹ s⁻¹

B4: Format 4-G2(1H11) hOKT3a with engineered VH44/VL100 disulfide bond (DSB) (bispecific antibody, human IgG1, kappa, N297Q)
chain: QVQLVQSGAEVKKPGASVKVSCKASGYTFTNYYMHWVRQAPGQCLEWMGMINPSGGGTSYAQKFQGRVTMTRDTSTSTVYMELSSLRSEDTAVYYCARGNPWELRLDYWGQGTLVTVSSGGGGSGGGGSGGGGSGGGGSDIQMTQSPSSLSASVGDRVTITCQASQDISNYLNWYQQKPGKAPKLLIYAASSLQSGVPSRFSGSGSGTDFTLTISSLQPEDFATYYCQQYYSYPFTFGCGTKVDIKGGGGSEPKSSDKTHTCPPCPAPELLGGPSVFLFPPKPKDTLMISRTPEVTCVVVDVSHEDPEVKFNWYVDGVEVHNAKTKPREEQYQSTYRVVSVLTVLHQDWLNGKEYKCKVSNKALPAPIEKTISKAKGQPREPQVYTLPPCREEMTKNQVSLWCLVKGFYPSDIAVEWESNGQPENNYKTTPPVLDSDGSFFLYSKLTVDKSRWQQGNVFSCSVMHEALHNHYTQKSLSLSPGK
heavy: B1 heavy with G44C, P239C
light: B1 light
notes: also called 4-G2(1H11)-H44/L100 hOKT3a-TM; Format 4 G2(1H11)-hOKT3_DSBH44/L100
[1]
  koff: 0.025 s⁻¹
[2]
  Kd: 35.1 nM
[5]
  EC50: 1750 nM

B5: 41-E07 hSP34x (Format 41 31E07-CD3 bispecific antibody) (bispecific antibody)
chain: QVQLVQSGAEVKKPGASVKVSCKASGFTFTNYLIHWVRQAPGQGLEWMGWINPNSGGTNYAQRLQGRVTMTRDTSTSTVYMELSSLRSEDTAVYYCARDYGAGNDYWGQGTLVTVSSGGGGSGGGGSDIQMTQSPSSLSASVGDRVTITCRASQEIRRWLAWYQQKPGKAPKLLIYAASNLQSGVPSRFSGSGSGTDFTLTISSLQPEDFATYYCQQSYSTPYTFGQGTKLEIKGGGGSEPKSSDKTHTCPPCPAPEFEGGPSVFLFPPKPKDTLMISRTPEVTCVVVDVSHEDPEVKFNWYVDGVEVHNAKTKPREEQYNSTYRVVSVLTVLHQDWLNGKEYKCKVSNKALPASIEKTISKAKGQPREPQVYTLPPCREEMTKNQVSLWCLVKGFYPSDIAVEWESNGQPENNYKTTPPVLDSDGSFFLYSKLTVDKSRWQQGNVFSCSVMHEALHNHYTQKSLSLSPGK
heavy: QVQLVQSGAEVKKPGASVKVSCKASGFTFTNYLIHWVRQAPGQGLEWMGWINPNSGGTNYAQRLQGRVTMTRDTSTSTVYMELSSLRSEDTAVYYCARDYGAGNDYWGQGTLVTVSSGGGGSGGGGSDIQMTQSPSSLSASVGDRVTITCRASQEIRRWLAWYQQKPGKAPKLLIYAASNLQSGVPSRFSGSGSGTDFTLTISSLQPEDFATYYCQQSYSTPYTFGQGTKLEIKGGGGSGGGGSEVQLVESGGGLVQPGGSLRLSCAASGFTFSTYAMNWVRQAPGKGLEWVGRIRSKYNNYATYYADSVKGRFTISRDDSKNTLYLQMNSLRAEDTAVYYCVRHGNFGDSYVSWFAYWGQGTLVTVSSASTKGPSVFPLAPSSKSTSGGTAALGCLVKDYFPEPVTVSWNSGALTSGVHTFPAVLQSSGLYSLSSVVTVPSSSLGTQTYICNVNHKPSNTKVDKRVEPKSCDKTHTCPPCPAPEFEGGPSVFLFPPKPKDTLMISRTPEVTCVVVDVSHEDPEVKFNWYVDGVEVHNAKTKPREEQYNSTYRVVSVLTVLHQDWLNGKEYKCKVSNKALPASIEKTISKAKGQPREPQVCTLPPSREEMTKNQVSLSCAVKGFYPSDIAVEWESNGQPENNYKTTPPVLDSDGSFFLVSKLTVDKSRWQQGNVFSCSVMHEALHNRFTQKSLSLSPGK
light: QAVVTQEPSLTVSPGGTVTLTCGSSTGAVTTSNYANWVQQKPGKSPRGLIGGTNKRAPGVPARFSGSLLGGKAALTISGAQPEDEADYYCALWYSNHWVFGGGTKLTVLRTVAAPSVFIFPPSDEQLKSGTASVVCLLNNFYPREAKVQWKVDNALQSGNSQESVTEQDSKDSTYSLSSTLTLSKADYEKHKVYACEVTHQGLSSPVTKSFNRGEC
notes: also called 41-31E07-hSP34x
CD3 on CD3+ Jurkat cells
  EC50 (read off the curve): ~6 nM
[8]
  EC50 (read off the curve): ~2 nM

Reference: patent US20260062487A1 (GRITSTONE BIO, published 2026)
